In paper PMC6265488 one finds percent of total GTPBP10 that co-sediments data, which are given here for two substances.

Common to all, as to assay: co-sedimentation
Assay [1] addresses 39S large mitoribosome subunit (mtLSU) (human (endogenous in HEK293T or 143B)).
Assay [2] deals with 55S monosome (human (endogenous in HEK293T or 143B)).
Assay [3] has as its target 28S small mitoribosome subunit (mtSSU) (human (endogenous in HEK293T or 143B)).

For “GTPBP10 (endogenous in HEK293T, isoform 1) (from UniProt A4D1E9-1 1-387) (natural protein)”, the percent of total GTPBP10 that co-sediments was 10% in assay [1], 1 to 2% in assay [2] and 10% in assay [3].

For “GTPBP10 (endogenous in 143B, isoform 2) (natural protein)”, the figures for the percent of total GTPBP10 that co-sediments in assay [1], in assay [2] and in assay [3] were 10%, 1 to 2% and 10%, respectively.
